Experiment [1] deals with T1, cynoSIRPα (EGM_02252), Extracellular Domain + His-Tag (cynomolgus monkey).
T1 construct: also called CySIRPα EGM_02252; not shown: His-Tag
T1 chain: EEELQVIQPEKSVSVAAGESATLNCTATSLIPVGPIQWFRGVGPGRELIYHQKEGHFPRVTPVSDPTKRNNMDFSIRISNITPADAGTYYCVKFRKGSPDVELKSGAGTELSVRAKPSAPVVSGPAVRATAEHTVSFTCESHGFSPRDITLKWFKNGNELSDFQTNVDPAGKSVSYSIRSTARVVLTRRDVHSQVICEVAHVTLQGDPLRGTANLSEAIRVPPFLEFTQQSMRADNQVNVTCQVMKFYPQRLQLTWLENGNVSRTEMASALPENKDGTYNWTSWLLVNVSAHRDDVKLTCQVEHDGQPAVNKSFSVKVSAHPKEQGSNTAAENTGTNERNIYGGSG
Kind of experiment: SPR, antibody captured on Protein A/G, ECD-His analyte. As to the method:
(§1) The binding kinetics of anti-SIRPα antibodies to various SIRPα analytes are determined by surface plasmon resonance (SPR) using a Biacore 8K+(Cytiva). 1×HBS-EP+(Cytiva) is used as running buffer and for all the dilutions unless stated otherwise. The Series S CM5 sensorchip is activated with a 1:1 mixture of 0.1 M NHS (N-hydroxysuccinimide) and 0.4 M EDC (1-Ethyl-3-(3-dimethylaminopropyl) carbodiimide hydrochloride) for 420 seconds at a flow rate of 10 μl/min and immobilized with Protein A/G (Thermo Scientific, 10 μg/ml in 10 mM acetate pH 4.5) for 420 seconds at a flowrate of 10 μl/min resulting in approximately 3000 RU of Protein A/G on the surface. The sensorchip is then deactivated with 1 M ethanolamine HCl pH 8.5 for 420 seconds at a flowrate of 10 μl/min.
(§2) Antibodies (approximately 1 ug/ml) are captured on the Protein A/G surface for 60 seconds at a flowrate of 10 μl/min resulting in capture levels of approximately 240 RU. Dilutions of each SIRP protein (Extracellular Domain+His-Tag, with the concentrations as indicated) are injected as analytes over the captured antibody for 300 seconds of association at a flowrate of 30 μl/min, followed by a dissociation for 600 seconds.

In experiment [2] the target is T2, Human SIRPαV1 (NP_542970.1), Extracellular Domain + His-Tag (human, UniProt P78324 31-373).
T2 construct: also called huSIRPαV1; hSIRPαV1; not shown: His-Tag
T2 sequence (P78324 other isoform, or with tags, fused parts or gaps): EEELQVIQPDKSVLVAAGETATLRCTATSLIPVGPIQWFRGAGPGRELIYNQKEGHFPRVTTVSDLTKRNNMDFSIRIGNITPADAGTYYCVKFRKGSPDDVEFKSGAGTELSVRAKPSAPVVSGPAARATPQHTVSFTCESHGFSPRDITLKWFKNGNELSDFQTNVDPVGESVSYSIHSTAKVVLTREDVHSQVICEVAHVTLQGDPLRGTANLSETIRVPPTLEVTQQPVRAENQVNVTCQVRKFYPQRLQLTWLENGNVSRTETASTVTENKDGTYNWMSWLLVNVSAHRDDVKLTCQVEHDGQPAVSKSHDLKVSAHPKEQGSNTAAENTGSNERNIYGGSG
Kind of experiment: SPR, antibody captured on Protein A/G, ECD-His analyte, 1:1 fit. As to the method:
as §1, §2
(§3) The above procedures are used to measure binding properties of antibodies of the present disclosure. For each analyte used, the highest concentration was as indicated in Example 3 (see Table 36).

Experiment [3] addresses T3, Human SIRPαV2 (CAA71403.1), Extracellular Domain + His-Tag (human, UniProt P78324 31-373).
T3 construct: also called huSIRPαV2; hSIRPαV2; not shown: His-Tag
The experiment is described as above. On the procedure:
as §1, §2, §3

Experiment [4] has as its target T4, cynoSIRPα (NP_001271679), Extracellular Domain + His-Tag (cynomolgus monkey).
T4 construct: also called CySIRPα NP_001271679; not shown: His-Tag
T4 chain: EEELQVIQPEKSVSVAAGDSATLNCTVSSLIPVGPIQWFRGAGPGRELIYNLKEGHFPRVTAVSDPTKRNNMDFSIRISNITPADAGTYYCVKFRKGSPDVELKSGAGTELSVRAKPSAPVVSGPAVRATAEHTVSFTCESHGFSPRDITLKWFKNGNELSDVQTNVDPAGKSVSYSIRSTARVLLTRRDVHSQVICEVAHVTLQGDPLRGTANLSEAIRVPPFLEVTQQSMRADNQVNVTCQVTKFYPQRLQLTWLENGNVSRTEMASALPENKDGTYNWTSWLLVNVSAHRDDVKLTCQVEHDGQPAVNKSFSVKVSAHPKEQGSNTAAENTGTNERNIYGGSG
Described as above. On the procedure:
as §1, §2, §3

In experiment [5] the target is T5, cynoSIRPα (XP_015313155), Extracellular Domain + His-Tag (cynomolgus monkey).
T5 construct: also called CySIRPα XP_015313155; not shown: His-Tag
T5 chain: T4 chain with A62P, V163F, L185V
The description is as above. On the procedure: as §1, §2, §3

Changes are numbered by the printed parent chain.

T3 sequence (P78324 other isoform, or with tags, fused parts or gaps): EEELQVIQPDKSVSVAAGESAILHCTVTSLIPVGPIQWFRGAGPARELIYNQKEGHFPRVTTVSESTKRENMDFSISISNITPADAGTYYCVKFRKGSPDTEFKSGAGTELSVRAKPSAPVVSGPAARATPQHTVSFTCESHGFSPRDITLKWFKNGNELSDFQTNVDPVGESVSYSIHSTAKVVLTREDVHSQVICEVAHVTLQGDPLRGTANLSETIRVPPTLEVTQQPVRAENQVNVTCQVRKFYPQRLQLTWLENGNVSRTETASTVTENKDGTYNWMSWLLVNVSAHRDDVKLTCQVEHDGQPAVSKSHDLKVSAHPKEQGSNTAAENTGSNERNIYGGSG

B1: Antibody E1 (antibody, human IgG1, kappa, L234A L235A, V domains shown)
VH: QVQLQESGPGLVRPSETLSLTCTVSGGSIRNYYWSWIRQPPGKGLEWIGFIYYNGRTFYNPSLKSRVTISLDMSINQFSLKMTSVTAADTAVYYCARVRAYSGIGLDGTDVWGQGTTVTVSS
VL: DIVMTQSPLSLPVTPGEPASISCKSSQSLLYSNGYAYLDWYLQRPGQSPQLLIYQGSNRASGVPDRFSGSGSGTDFTLKISRVEAEDVGVFYCMQALQTPLTFGGGTKVEIKR
On to B1, for which the binding result in experiment [1] is recorded as “no binding (tested: 1000 nM)”. Further, the Kd turned out to be 0.72 nM in experiment [2], 0.63 nM in experiment [3], 17.9 nM in experiment [4] and 16.7 nM in experiment [5]. The koff in experiment [2] is 0.000299 s⁻¹; in experiment [3], 0.00033 s⁻¹; in experiment [4], 0.00327 s⁻¹; in experiment [5], 0.00317 s⁻¹. Also, the kon stood at 414000 M⁻¹ s⁻¹ in experiment [2], 523000 M⁻¹ s⁻¹ in experiment [3], 183000 M⁻¹ s⁻¹ in experiment [4] and 190000 M⁻¹ s⁻¹ in experiment [5].

B2: Antibody E7 (antibody, human IgG1, kappa, L234A L235A, V domains shown)
VH: B1 VH with M73T, I75K
VL: B1 VL
Regarding B2, the binding result in experiment [1] is listed as “no binding (tested: 1000 nM)”. In addition, the Kd in experiment [2] worked out at 1.2 nM; in experiment [3], 1.18 nM; in experiment [4], 21.9 nM; in experiment [5] it was 21.2 nM. For the same molecule, the off-rate constant (koff) in experiment [2] turned out to be 0.000453 s⁻¹; in experiment [3] it was 0.000552 s⁻¹; in experiment [4], 0.00346 s⁻¹; in experiment [5], 0.00337 s⁻¹. In addition, the kon in experiment [2] was found to be 378000 M⁻¹ s⁻¹; in experiment [3], 468000 M⁻¹ s⁻¹; in experiment [4], 158000 M⁻¹ s⁻¹; in experiment [5], 159000 M⁻¹ s⁻¹.

B3: Antibody E8 (antibody, human IgG1, kappa, L234A L235A, V domains shown)
VH: B1 VH with I48M, Y53D, I75M
VL: B1 VL
For the molecule B3, in experiment [1], the binding result is on record as “no binding (tested: 1000 nM)”. Moreover, the Kd in experiment [2] is 1.21 nM; in experiment [3] it was 0.54 nM; in experiment [4], 17.7 nM; in experiment [5], 16.6 nM. In addition, the koff came to 0.00039 s⁻¹ in experiment [2], 0.000236 s⁻¹ in experiment [3], 0.0036 s⁻¹ in experiment [4] and 0.00344 s⁻¹ in experiment [5]. For the same molecule, the kon in experiment [2] came to 322000 M⁻¹ s⁻¹; in experiment [3] it was 435000 M⁻¹ s⁻¹; in experiment [4], 204000 M⁻¹ s⁻¹; in experiment [5], 207000 M⁻¹ s⁻¹.

B4: Antibody E6 (antibody, human IgG1, kappa, L234A L235A, V domains shown)
VH: B1 VH with M73K, I75K
VL: B1 VL with Q55L, F91Y
B4: the binding result in experiment [1] is on record as “no binding (tested: 1000 nM)”. For the same molecule, the dissociation constant Kd is 1.03 nM in experiment [2], 0.88 nM in experiment [3], 41 nM in experiment [4] and 41.6 nM in experiment [5]. The off-rate constant (koff) in experiment [2] stood at 0.000386 s⁻¹; in experiment [3], 0.000375 s⁻¹; in experiment [4], 0.00774 s⁻¹; in experiment [5] it was 0.00729 s⁻¹. Besides, the on-rate (kon) in experiment [2] came to 374000 M⁻¹ s⁻¹; in experiment [3], 429000 M⁻¹ s⁻¹; in experiment [4] it was 189000 M⁻¹ s⁻¹; in experiment [5] it was 175000 M⁻¹ s⁻¹.

B5: Antibody E4 (antibody, human IgG1, kappa, L234A L235A, V domains shown)
VH: B1 VH with I75K
VL: B1 VL with Q55L, F91Y
B5: in experiment [1], the binding result was “no binding (tested: 1000 nM)”. Moreover, the dissociation constant Kd is 0.99 nM in experiment [2], 0.82 nM in experiment [3], 21.1 nM in experiment [4] and 19.8 nM in experiment [5]. The koff stood at 0.000433 s⁻¹ in experiment [2], 0.000421 s⁻¹ in experiment [3], 0.00468 s⁻¹ in experiment [4] and 0.00451 s⁻¹ in experiment [5]. The kon in experiment [2] worked out at 438000 M⁻¹ s⁻¹; in experiment [3] it was 511000 M⁻¹ s⁻¹; in experiment [4] it was 222000 M⁻¹ s⁻¹; in experiment [5], 228000 M⁻¹ s⁻¹.

B6: Antibody E5 (antibody, human IgG1, kappa, L234A L235A, V domains shown)
VH: B1 VH with M73K, I75K
VL: B1 VL
B6: in experiment [1], the binding result is on record as “no binding (tested: 1000 nM)”. Moreover, the dissociation constant (Kd) worked out at 1.02 nM in experiment [2], 0.87 nM in experiment [3], 38.2 nM in experiment [4] and 37.8 nM in experiment [5]. The dissociation rate constant (koff) in experiment [2] is 0.000336 s⁻¹; in experiment [3], 0.000355 s⁻¹; in experiment [4], 0.00471 s⁻¹; in experiment [5] it was 0.00459 s⁻¹. The on-rate constant (kon) turned out to be 331000 M⁻¹ s⁻¹ in experiment [2], 406000 M⁻¹ s⁻¹ in experiment [3], 123000 M⁻¹ s⁻¹ in experiment [4] and 121000 M⁻¹ s⁻¹ in experiment [5].

B7: Antibody E9 (antibody, human IgG1, kappa, L234A L235A, V domains shown)
VH: B1 VH
VL: B1 VL with G34A, A36N, Q55L, F91Y
Turning to B7, in experiment [1], the binding result was “no binding (tested: 1000 nM)”. The Kd in experiment [2] turned out to be 1.22 nM; in experiment [3], 0.94 nM; in experiment [4] it was 43.7 nM; in experiment [5], 40.8 nM. Moreover, the koff in experiment [2] stood at 0.000631 s⁻¹; in experiment [3], 0.000548 s⁻¹; in experiment [4], 0.014 s⁻¹; in experiment [5], 0.0132 s⁻¹. Further, the on-rate (kon) worked out at 518000 M⁻¹ s⁻¹ in experiment [2], 583000 M⁻¹ s⁻¹ in experiment [3], 321000 M⁻¹ s⁻¹ in experiment [4] and 324000 M⁻¹ s⁻¹ in experiment [5].

B8: Antibody E2 (antibody, human IgG1, kappa, L234A L235A, V domains shown)
VH: B1 VH
VL: B1 VL with Q55L, F91Y
B8: the binding result in experiment [1] is “no binding (tested: 1000 nM)”. For the same molecule, the Kd in experiment [2] stood at 0.91 nM; in experiment [3], 0.69 nM; in experiment [4], 20.7 nM; in experiment [5], 19.7 nM. Further, the koff was found to be 0.000419 s⁻¹ in experiment [2], 0.000367 s⁻¹ in experiment [3], 0.00526 s⁻¹ in experiment [4] and 0.00512 s⁻¹ in experiment [5]. For the same molecule, the kon in experiment [2] was determined as 459000 M⁻¹ s⁻¹; in experiment [3], 535000 M⁻¹ s⁻¹; in experiment [4], 254000 M⁻¹ s⁻¹; in experiment [5] it was 260000 M⁻¹ s⁻¹.

B9: Antibody E3 (antibody, human IgG1, kappa, L234A L235A, V domains shown)
VH: B1 VH with I75K
VL: B1 VL
B9: the binding result in experiment [1] is recorded as “no binding (tested: 1000 nM)”. Also, the dissociation constant Kd in experiment [2] stood at 0.96 nM; in experiment [3] it was 0.78 nM; in experiment [4], 17.3 nM; in experiment [5], 16.9 nM. The koff stood at 0.000371 s⁻¹ in experiment [2], 0.000366 s⁻¹ in experiment [3], 0.00291 s⁻¹ in experiment [4] and 0.00288 s⁻¹ in experiment [5]. The on-rate constant (kon) amounted to 385000 M⁻¹ s⁻¹ in experiment [2], 472000 M⁻¹ s⁻¹ in experiment [3], 168000 M⁻¹ s⁻¹ in experiment [4] and 170000 M⁻¹ s⁻¹ in experiment [5].

Source of the values: US20230012273A1 (Boehringer Ingelheim, published 2023).
